Results from paper PMC4947174 (Nature Communications, 2016).

B1: Rrn3 (Pol I-specific initiation factor), overexpressed in yeast as Rrn3-TEV-ProtA-His7 (natural protein, S. cerevisiae)
chain: MMAFENTSKRPPQDFVAPIDQKKRKVQFSDSTGLVTLQPEEIKDEVFSAAMYSRFVKSALDDLDKNDSTQIGIIANQVALPSKNPERINDKNLNILLDILSSNINRIESSRGTFLIQSIINFEKWWELPPHTLSKYIYFIKILCSSIPKWWQDVSMILVSCFILPIKQTVCHHDMLKYFLRMIPSSMGFIDTYLAKFFPNKNDTRRKLVNYTSNLLKLRGYCSELGFQIWSLLIEKIISIDVELQNELDELDDDVDDDDLEEVDLEDDDDLDDDSGDDDDENCGNSNEELRSGAADGSQSDSEDMDIIEGMDGTEEYNVELTQGIKELSTKLDSILTLVSTHVEEQVTPESLESGEGVGVFNTLTTLFKTHVLPTYYTRSIQYIMFHVSQQQLELMDSFLVTLIDISFAVNEAAEKKIKSLQYLGSYIARAKKLSRTQIIFVASYLTSWLNRYVIEREEEVDQRGGMERFKHFYAAFQALCYIFCFRHNIFRDTDGNWECELDKFFQRMVISKFNPLKFCNENVMLMFARIAQQESVAYCFSIIENNNNERLRGIIGKADSDKKENSAQANTTSSSWSLATRQQFIDLQSYFPYDPLFLKNYKILMKEYYIEWSEASGEYESDGSDD
notes: Rrn3, RNA polymerase I-specific transcription initiation factor, S. cerevisiae; Released from the beads by TEV protease; source: S. cerevisiae strain y2183 with plasmid 729 (Ycplac111-GAL-Rrn3-TEV-ProtA-HIS), galactose-induced; purified in complex with Pol I (IgG beads, TEV elution)
B2: Pol I subunit AC40 (natural protein, S. cerevisiae (endogenous in yeast), UniProt P07703 1-335, looked up)
chain: MSNIVGIEYNRVTNTTSTDFPGFSKDAENEWNVEKFKKDFEVNISSLDAREANFDLINIDTSIANAFRRIMISEVPSVAAEYVYFFNNTSVIQDEVLAHRIGLVPLKVDPDMLTWVDSNLPDDEKFTDENTIVLSLNVKCTRNPDAPKGSTDPKELYNNAHVYARDLKFEPQGRQSTTFADCPVVPADPDILLAKLRPGQEISLKAHCILGIGGDHAKFSPVSTASYRLLPQINILQPIKGESARRFQKCFPPGVIGIDEGSDEAYVKDARKDTVSREVLRYEEFADKVKLGRVRNHFIFNVESAGAMTPEEIFFKSVRILKNKAEYLKNCPITQ
notes: AC40, subunit shared by RNA polymerases I and III, S. cerevisiae; source: endogenous, S. cerevisiae; part of Pol I purified with Rrn3-ProtA (y2183)
B3: Pol I subunit A14 (natural protein, S. cerevisiae (endogenous in yeast), UniProt P50106 1-137, looked up)
chain: MMKGSRRTGNNTATTLNTPVVIHATQLPQHVSTDEVLQFLESFIDEKENIIDSTTMNTISGNAADADAAAVANTSLNIDTNLSSSISQLKRIQRDFKGLPPAQDFSAAPIQVSTTEKKETSIGVSATGGKKTTFADE
notes: A14, subunit of RNA polymerase I, S. cerevisiae; source: endogenous, S. cerevisiae; part of Pol I purified with Rrn3-ProtA (y2183)
B4: Pol I subunit AC19 (natural protein, S. cerevisiae (endogenous in yeast), UniProt P28000 1-142, looked up)
chain: MTEDIEQKKTATEVTPQEPKHIQEEEEQDVDMTGDEEQEEEPDREKIKLLTQATSEDGTSASFQIVEEDHTLGNALRYVIMKNPDVEFCGYSIPHPSENLLNIRIQTYGETTAVDALQKGLKDLMDLCDVVESKFTEKIKSM
notes: AC19, subunit shared by RNA polymerases I and III, S. cerevisiae; source: endogenous, S. cerevisiae; part of Pol I purified with Rrn3-ProtA (y2183)

Assays:
[1] = biological target: Rrn3-free RNA polymerase I (WT Pol I) purified through A135-TEV-ProtA (S. cerevisiae (endogenous in yeast) | S. cerevisiae) (UniProt P10964)
[2] = biological target: T1, Pol I subunit A190 (largest subunit) (S. cerevisiae (endogenous in yeast), UniProt P10964 1-1664); experiment: cryo-EM structure; Pol I-Rrn3 complex purified from yeast, cross-linked with 0.5% glutaraldehyde for 2 min; 20 mM Hepes pH 7.8, 100 mM ammonium acetate, 2 mM MgCl2; 32,438 particles of intact complex; 7.5 Å; crystal structures of Pol I and Rrn3 docked into the map; details: both partners purified
T1 construct: A190, largest subunit of RNA polymerase I, S. cerevisiae; source: endogenous, S. cerevisiae; part of Pol I purified with Rrn3-ProtA (y2183) or through A135-ProtA (y2423)

[3] = biological target: B1; experiment: as above; details: both partners purified

Sequence of Rrn3-free RNA polymerase I (WT Pol I) purified through A135-TEV-ProtA (S. cerevisiae (endogenous in yeast) | S. cerevisiae) (P10964 whole entry, looked up): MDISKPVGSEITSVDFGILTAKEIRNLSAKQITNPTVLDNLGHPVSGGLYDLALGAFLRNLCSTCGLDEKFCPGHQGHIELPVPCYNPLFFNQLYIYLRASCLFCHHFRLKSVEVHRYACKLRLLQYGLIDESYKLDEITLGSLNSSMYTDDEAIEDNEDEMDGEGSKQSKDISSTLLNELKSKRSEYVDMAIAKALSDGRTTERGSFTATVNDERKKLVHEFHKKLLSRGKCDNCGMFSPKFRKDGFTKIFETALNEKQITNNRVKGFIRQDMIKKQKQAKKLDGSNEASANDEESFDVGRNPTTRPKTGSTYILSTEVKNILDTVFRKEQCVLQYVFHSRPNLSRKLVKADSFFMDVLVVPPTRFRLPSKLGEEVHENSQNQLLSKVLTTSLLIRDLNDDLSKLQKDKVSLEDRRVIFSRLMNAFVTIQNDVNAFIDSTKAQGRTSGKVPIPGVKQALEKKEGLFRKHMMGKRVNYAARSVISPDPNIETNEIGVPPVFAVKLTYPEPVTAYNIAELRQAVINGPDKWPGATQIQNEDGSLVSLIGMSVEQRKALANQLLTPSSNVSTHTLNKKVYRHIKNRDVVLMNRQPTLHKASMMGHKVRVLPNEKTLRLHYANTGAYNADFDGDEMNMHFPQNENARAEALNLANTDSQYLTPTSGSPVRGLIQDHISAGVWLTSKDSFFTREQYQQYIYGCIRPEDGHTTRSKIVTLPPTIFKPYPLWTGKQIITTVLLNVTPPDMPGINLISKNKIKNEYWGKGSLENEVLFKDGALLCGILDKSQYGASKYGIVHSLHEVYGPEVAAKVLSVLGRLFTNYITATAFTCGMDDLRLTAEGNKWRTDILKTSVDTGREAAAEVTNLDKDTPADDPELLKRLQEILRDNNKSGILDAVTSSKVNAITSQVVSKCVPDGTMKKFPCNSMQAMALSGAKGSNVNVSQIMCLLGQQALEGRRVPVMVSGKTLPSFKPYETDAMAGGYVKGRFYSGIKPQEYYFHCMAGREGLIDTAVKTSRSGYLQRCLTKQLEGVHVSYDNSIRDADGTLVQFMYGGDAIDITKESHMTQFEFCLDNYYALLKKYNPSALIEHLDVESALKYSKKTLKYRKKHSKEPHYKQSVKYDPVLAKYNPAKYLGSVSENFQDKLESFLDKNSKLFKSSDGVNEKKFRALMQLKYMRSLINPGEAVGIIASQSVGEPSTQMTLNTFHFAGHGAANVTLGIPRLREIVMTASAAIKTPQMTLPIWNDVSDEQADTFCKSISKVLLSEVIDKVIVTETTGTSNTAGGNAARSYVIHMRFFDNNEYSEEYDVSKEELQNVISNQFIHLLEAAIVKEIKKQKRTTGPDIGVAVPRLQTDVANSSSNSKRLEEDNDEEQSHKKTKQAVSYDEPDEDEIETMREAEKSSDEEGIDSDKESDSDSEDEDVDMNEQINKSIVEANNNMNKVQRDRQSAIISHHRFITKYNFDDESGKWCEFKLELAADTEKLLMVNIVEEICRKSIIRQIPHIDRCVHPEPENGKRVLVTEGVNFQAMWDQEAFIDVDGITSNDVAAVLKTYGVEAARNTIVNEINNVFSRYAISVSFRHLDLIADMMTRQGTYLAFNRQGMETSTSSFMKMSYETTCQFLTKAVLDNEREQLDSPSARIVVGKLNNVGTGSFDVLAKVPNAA
T1 sequence (P10964 whole entry): as the sequence (P10964 whole entry, looked up) above

binding result [3] | Molecule | also measured
 | Recombinant His6-Rrn3 (from UniProt P36070 1-627) (natural protein) | promoter-dependent in vitro transcription: purified Pol I-Rrn3 complex against the same concentration of Rrn3-free Pol I with recombinant His6-Rrn3 (70 nM) and CF (20 nM) [1]: < 10 fold
 | B1 | binding result [2]: binds
binds | B2 | 
binds | B3 | 
binds | B4 | 
